Assay results reported in paper PMC7542365 (mBio, 2020).

Target: T1, A/Brevig Mission/1/1918 H1N1 NA, soluble tetramer with His tag attached (influenza A virus A/Brevig …)
T1 chain: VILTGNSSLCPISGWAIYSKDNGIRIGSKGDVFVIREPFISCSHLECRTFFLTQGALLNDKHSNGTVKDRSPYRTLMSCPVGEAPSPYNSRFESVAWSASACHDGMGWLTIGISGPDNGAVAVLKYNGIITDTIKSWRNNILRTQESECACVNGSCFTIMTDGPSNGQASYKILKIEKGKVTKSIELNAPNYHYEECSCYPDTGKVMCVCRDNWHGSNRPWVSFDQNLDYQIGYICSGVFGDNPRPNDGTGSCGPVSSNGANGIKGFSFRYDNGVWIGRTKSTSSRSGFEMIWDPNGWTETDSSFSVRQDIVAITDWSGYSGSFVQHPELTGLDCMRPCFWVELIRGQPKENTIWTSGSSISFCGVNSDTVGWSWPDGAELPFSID
Assay: SPR

B1: Z2B3-D102R Fab (Fab, V domains shown)
VH: EVQLVQSGAEVKKPGSSVKVSCKASGGPFSSYGFSWVRQAPGQGLEWMGGIIPVYGTTNYAQKFQGRVTITADESTSTAYMELSSLKSEDTAVYYCARDLQRTPMVDRIIGSYYYYNGLDVWGQGTTVTVSS
VL: QSVLTQPASVSGSPGQSITISCTGASSDVGDYNYVSWYQQHPGKAPKLMIYDVSNRPSGVSNRFSGSKSGDTASLTISGLQAEDEADYYCSSYTRSSSVVFGGGTKLTVL
Kd: 1670 nM
